In test [1] the target is human CLDN18.2 expressed on cells (human). Put plainly: cell-based or functional assay.
Test [2] shares this target. Put plainly: cell-based or functional assay. The source holds these as a separate data set.
For test [3] the target is unchanged. In words: cell-based or functional assay. The source holds these as a separate data set.
The target is the same in test [4]. In words: cell-based or functional assay. The source holds these as a separate data set.
Test [5] shares this target. Put plainly: cell-based or functional assay. The source holds these as a separate data set.
The target of test [6] is T1, human CLDN18.2 expressed on cells (human).
T1 construct: also called huCLDN18.2; CLDN18.2-expressing 293T cells
Put plainly: KinExA 4000, antibody constant, CHO cells over-expressing huCLDN18.2 titrated. The protocol:
A KinExA 4000 instrument was also used to measure binding affinity of the antibodies to surface protein of intact cells, i.e., CHO cells over-expressing huCLDN18.2. Concentration of the antibodies was held constant (CBP) and concentration of whole cells with surface protein were varied (titrant). Concentration of whole cells with surface proteins were diluted three-fold. Titrated cells were incubated with the constant binding partner (CBP). Once equilibrium was reached, the samples were centrifuged, the supernatants were recovered, and the free CBP was detected with a fluorescently labeled anti-CBP molecule.
To establish a more accurate Kd, two equilibrium curves were prepared and analyzed. One curve with low concentration of CBP at 100 pM (200 pM binding sites) and 10⁶ cells/mL with three-fold dilutions, and one curve with high concentration of CBP at 10 nM (20 nM binding sites) and 10⁶ cells/mL with three-fold dilutions. The KinExA 4000 measured the amount of unbound CBP in solution. Analysis was performed using Sapidyne Instruments n-Curve Analysis Software version 4.4.26.
(In general: Kinetic exclusion samples the free partner from a solution-phase mixture.)

The target in test [7] is T1, human CLDN18.2 expressed on cells. Put plainly: flow cytometry (percent FITC-positive cells, GAH-FITC secondary) on CHO cells expressing huCLDN18.2. The protocol: CHO cells expressing huCLDN18.2 were used to assess the binding of the antibodies. Cells were seeded at 5×10⁵ cells per 100 μl into a well of a 96-well plate for each sample. Then, 100 μl of each serially diluted antibody was added to the cells, each dilution started at 40 µg/ml and was diluted 5-fold. Therefore, the final concentration of each antibody starts at 20 µg/ml followed by a 5-fold serial dilution. After 1 hour, the cells were washed twice and 100 μl of GAH-FITC (1:200 dilution) was added to each well. After 30 minutes, the cells were washed twice and resuspended in 120 μl of FACS buffer. The cells were analyzed via flow cytometry.
Unstained cells were used as a reference to set up overall target cell gating and to establish the FITC-negative populations, allowing us to establish the FITC-positive cell gate for each cell line. Additionally, the mean fluorescence intensity (MFI) of the entire population of cells was calculated to secondarily validate the FITC-positive results. The ratio of the gated positive cell number to the total live cell number is taken as the percentage of positive cells.
A general note: In flow cytometry, cells or beads pass a laser one at a time.

We go through one molecule from US20250263481A1 (SHIJIAZHUANG YILING PHARMACEUTICAL, published 2025).

The Kd is a measure of binding affinity in units of concentration. Read a low Kd as higher affinity. One may read the EC50 (read off the curve) as the concentration needed to bring the measured effect to its halfway point. Higher therefore signals lower potency in that assay.

B1: YL-G2-B (antibody, human IgG1, kappa)
heavy: EVQLQQSGPELEKPGASVKISCKASGYSFTGYKMNWVKQSNGKSLEWIGNIDPYYGGTTYNQKFKGKATLTVDKSSSTAYMQLKSLTSEDSAVYYCARYGKGNTMDYWGQGTSVTVSSASTKGPSVFPLAPSSKSTSGGTAALGCLVKDYFPEPVTVSWNSGALTSGVHTFPAVLQSSGLYSLSSVVTVPSSSLGTQTYICNVNHKPSNTKVDKRVEPKSCDKTHTCPPCPAPELVGGPSVFLLPPKPKDTLMISRTPEVTCVVVDVSHEDPEVKFNWYVDGVEVHNAKTKPPEEQYNSTLRVVSVLTVLHQDWLNGKEYKCKVSNKALPAPIEKTISKAKGQPREPQVYTLPPSREEMTKNQVSLTCLVKGFYPSDIAVEWESNGQPENNYKTTPLVLDSDGSFFLYSKLTVDKSRWQQGNVFSCSVMHEALHNHYTQKSLSLSPGK
light: DIVMTQSPSSLTVTAGEKVTMSCKSSQSLLNSGNQKNYLTWYQQRPGQPPKLLIYWASTRESGVPVRFTGSGSGTDFTLTISSVQAEDLAVYYCQNAYIYPLTFGTGTKLELKRTVAAPSVFIFPPSDEQLKSGTASVVCLLNNFYPREAKVQWKVDNALQSGNSQESVTEQDSKDSTYSLSSTLTLSKADYEKHKVYACEVTHQGLSSPVTKSFNRGEC
notes: also called YL-G2-B batch 1; YL-G2-B batch 2
In the case of B1, in test [1], the “ADCC, FACS: EC50” value came out at 7.3 pM and the “ADCC, LDH: EC50” value is 0.012 nM. For the same molecule, in test [2], the “CDC on CT26 CLDN18.2 cells, LDH: EC50 (batch 1)” value worked out at 0.14 nM and the “CDC on CT26 CLDN18.2 cells, LDH: EC50 (batch 2)” value is 0.12 nM. For the same molecule, in test [3], the “CDC on KATOIII CLDN18.2 cells, LDH: EC50 (batch 1)” value amounted to 1.24 nM and the “CDC on KATOIII CLDN18.2 cells, LDH: EC50 (batch 2)” value turned out to be 1.33 nM. For the same molecule, in test [4], the “ADCC on KATOIII CLDN18.2 cells, LDH: EC50 (batch 1)” value came to 0.028 nM and the “ADCC on KATOIII CLDN18.2 cells, LDH: EC50 (batch 2)” value was 0.018 nM. In test [5], the “ADCC on NCI-N87 CLDN18.2 cells, LDH: EC50 (batch 1)” value stood at 6.7 pM and the “ADCC on NCI-N87 CLDN18.2 cells, LDH: EC50 (batch 2)” value was 0.012 nM. Besides, in test [6], the Kd was found to be 9.4 pM. Also, the “EC50 (read off the curve)” value in test [7] is roughly 0.6 ng/mL.
